According to publication PMC9482650, “Quantitative fragmentomics allow affinity mapping of interactomes” (Nature Communications, 2022):

T1: GRIP1_4, Q9Y3R0
T1 sequence (Q9Y3R0 467-571, limits assumed, looked up): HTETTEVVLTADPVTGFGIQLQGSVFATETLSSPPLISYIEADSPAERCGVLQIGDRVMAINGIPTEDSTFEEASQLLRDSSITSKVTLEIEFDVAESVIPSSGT

T2: APBA2_2, Q99767
T2 sequence (Q99767 654-744, limits assumed, looked up): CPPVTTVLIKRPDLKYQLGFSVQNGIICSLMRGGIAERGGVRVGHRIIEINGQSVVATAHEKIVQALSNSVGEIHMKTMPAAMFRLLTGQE

T3: FRMPD1, Q5SYB0
T3 sequence (Q5SYB0 52-145, limits assumed, looked up): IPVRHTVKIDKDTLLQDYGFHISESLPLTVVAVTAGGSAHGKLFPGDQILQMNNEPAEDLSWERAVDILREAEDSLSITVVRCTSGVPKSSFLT

T4: LIN7A, O14910
T4 sequence (O14910 103-200, limits assumed, looked up): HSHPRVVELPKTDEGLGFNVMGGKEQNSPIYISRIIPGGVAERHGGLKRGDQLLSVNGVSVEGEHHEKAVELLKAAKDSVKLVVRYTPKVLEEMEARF

T5: TIAM2, Q8IVF5
T5 sequence (Q8IVF5 885-986, limits assumed, looked up): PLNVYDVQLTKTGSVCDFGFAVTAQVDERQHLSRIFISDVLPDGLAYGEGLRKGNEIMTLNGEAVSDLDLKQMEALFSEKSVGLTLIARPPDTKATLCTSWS

T6: PDZD7_3, Q9H5P4
T6 sequence (Q9H5P4 857-944, limits assumed, looked up): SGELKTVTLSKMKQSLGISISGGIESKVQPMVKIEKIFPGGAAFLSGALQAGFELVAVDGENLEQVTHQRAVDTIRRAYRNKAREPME

T7: PTPN13_1, Q12923
T7 sequence (Q12923 1088-1188, limits assumed, looked up): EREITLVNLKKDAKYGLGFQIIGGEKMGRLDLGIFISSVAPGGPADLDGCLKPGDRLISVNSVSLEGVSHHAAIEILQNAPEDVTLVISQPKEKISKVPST

T8: PCLO, Q9Y6V0
T8 sequence (Q9Y6V0 4491-4600, limits assumed, looked up): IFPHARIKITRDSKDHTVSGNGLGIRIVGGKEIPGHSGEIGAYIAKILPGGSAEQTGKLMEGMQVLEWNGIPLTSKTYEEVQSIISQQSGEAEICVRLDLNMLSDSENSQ

T9: GRIP1_7, Q9Y3R0
T9 sequence (Q9Y3R0 999-1096, limits assumed, looked up): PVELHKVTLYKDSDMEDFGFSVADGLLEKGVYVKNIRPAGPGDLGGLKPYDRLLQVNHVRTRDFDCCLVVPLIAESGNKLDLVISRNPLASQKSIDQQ

T10: LIN7B, Q9HAP6
T10 sequence (Q9HAP6 88-185, limits assumed, looked up): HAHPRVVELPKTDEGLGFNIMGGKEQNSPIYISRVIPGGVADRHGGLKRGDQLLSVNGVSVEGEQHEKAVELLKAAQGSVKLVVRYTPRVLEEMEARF


Columns and labels:
Assay in all cases: holdup assay
Set-up in all cases: key: below the threshold = too weak to quantify, mostly under pKd 3.1 to 4
Details in all cases: plain residues with an end cap or a label only (N-terminal biotin on a linker: ado-ado)
GRIP1_4, Q9Y3R0 = molecular target: T1, GRIP1_4, Q9Y3R0
LNX1_1, Q8TBB1 = molecular target: LNX1_1, Q8TBB1
APBA2_2, Q99767 = molecular target: T2, APBA2_2, Q99767
PDZRN4_1, Q6ZMN7 = molecular target: PDZRN4_1, Q6ZMN7
FRMPD1, Q5SYB0 = molecular target: T3, FRMPD1, Q5SYB0
MAGI2_6, Q86UL8 = molecular target: MAGI2_6, Q86UL8
LIN7A, O14910 = molecular target: T4, LIN7A, O14910
MAGI2_4, Q86UL8 = molecular target: MAGI2_4, Q86UL8
DLG4_2, P78352 = molecular target: DLG4_2, P78352
TIAM2, Q8IVF5 = molecular target: T5, TIAM2, Q8IVF5
SCRIB_1, Q14160 = molecular target: SCRIB_1, Q14160
PDZD7_3, Q9H5P4 = molecular target: T6, PDZD7_3, Q9H5P4
GRID2IP_2, A4D2P6 = molecular target: GRID2IP_2, A4D2P6
PTPN13_1, Q12923 = molecular target: T7, PTPN13_1, Q12923
IL16_1, Q14005 = molecular target: IL16_1, Q14005
GRID2IP_1, A4D2P6 = molecular target: GRID2IP_1, A4D2P6
TJP1_2, Q07157 = molecular target: TJP1_2, Q07157
FRMPD4, Q14CM0 = molecular target: FRMPD4, Q14CM0
Inadl_5, Q8NI35 = molecular target: Inadl_5, Q8NI35
PCLO, Q9Y6V0 = molecular target: T8, PCLO, Q9Y6V0
MAGI2_3, Q86UL8 = molecular target: MAGI2_3, Q86UL8
DLG2_3, Q15700 = molecular target: DLG2_3, Q15700
GRIP1_7, Q9Y3R0 = molecular target: T9, GRIP1_7, Q9Y3R0
FRMPD3, Q5JV73 = molecular target: FRMPD3, Q5JV73
LIN7B, Q9HAP6 = molecular target: T10, LIN7B, Q9HAP6
MAST1, Q9Y2H9 = molecular target: MAST1, Q9Y2H9
LNX1_3, Q8TBB1 = molecular target: LNX1_3, Q8TBB1
Chain of LNX1_3, Q8TBB1 (Q8TBB1 500-596): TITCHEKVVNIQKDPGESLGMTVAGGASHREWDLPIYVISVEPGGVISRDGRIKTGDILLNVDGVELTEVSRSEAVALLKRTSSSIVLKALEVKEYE

Chain of Inadl_5, Q8NI35 (Q8NI35 673-780): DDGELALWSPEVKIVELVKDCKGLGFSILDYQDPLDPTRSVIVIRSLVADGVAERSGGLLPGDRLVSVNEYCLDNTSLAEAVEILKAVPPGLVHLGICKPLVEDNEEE
Chain of GRID2IP_1, A4D2P6 (A4D2P6 1-87): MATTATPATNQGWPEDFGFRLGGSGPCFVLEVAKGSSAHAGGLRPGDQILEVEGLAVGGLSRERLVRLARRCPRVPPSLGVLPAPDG
Chain of MAGI2_6, Q86UL8 (Q86UL8 1141-1229): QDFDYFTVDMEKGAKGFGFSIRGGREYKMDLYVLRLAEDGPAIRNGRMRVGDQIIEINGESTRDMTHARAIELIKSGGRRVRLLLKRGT
Chain of PDZRN4_1, Q6ZMN7 (Q6ZMN7 213-318): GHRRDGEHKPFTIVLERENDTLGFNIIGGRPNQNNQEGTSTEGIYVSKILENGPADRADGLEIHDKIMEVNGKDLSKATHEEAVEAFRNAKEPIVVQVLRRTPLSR
Chain of FRMPD3, Q5JV73 (Q5JV73 12-100): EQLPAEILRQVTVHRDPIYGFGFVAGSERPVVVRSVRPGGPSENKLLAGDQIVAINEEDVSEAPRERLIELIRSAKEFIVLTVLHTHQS
Chain of LNX1_1, Q8TBB1 (Q8TBB1 261-371): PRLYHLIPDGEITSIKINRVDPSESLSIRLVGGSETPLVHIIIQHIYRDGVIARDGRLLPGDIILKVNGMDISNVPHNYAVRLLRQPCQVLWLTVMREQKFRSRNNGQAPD
Chain of TJP1_2, Q07157 (Q07157 181-274): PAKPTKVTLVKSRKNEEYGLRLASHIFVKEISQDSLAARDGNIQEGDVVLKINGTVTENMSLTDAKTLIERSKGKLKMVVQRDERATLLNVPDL
Chain of IL16_1, Q14005 (Q14005 210-306): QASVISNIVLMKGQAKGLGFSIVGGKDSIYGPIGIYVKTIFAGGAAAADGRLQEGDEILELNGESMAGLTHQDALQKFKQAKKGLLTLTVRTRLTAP
Chain of SCRIB_1, Q14160 (Q14160 718-814): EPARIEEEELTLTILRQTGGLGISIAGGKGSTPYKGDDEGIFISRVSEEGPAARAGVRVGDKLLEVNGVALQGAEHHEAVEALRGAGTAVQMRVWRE
Chain of FRMPD4, Q14CM0 (Q14CM0 67-160): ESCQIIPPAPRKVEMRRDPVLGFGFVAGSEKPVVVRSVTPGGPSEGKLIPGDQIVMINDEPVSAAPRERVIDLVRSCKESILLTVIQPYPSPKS
Chain of DLG4_2, P78352 (P78352 155-259): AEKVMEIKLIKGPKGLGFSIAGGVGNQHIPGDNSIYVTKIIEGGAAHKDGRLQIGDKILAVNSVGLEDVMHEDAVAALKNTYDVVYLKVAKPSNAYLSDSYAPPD
Chain of GRID2IP_2, A4D2P6 (A4D2P6 272-370): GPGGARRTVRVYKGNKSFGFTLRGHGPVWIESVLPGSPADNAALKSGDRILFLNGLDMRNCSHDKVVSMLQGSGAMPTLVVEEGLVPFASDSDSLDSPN
Chain of MAGI2_3, Q86UL8 (Q86UL8 600-682): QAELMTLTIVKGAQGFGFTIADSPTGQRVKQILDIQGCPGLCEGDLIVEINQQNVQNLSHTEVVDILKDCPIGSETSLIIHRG
Chain of MAGI2_4, Q86UL8 (Q86UL8 772-865): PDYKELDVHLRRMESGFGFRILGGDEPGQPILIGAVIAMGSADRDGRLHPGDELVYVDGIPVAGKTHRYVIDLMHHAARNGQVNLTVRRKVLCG
Chain of MAST1, Q9Y2H9 (Q9Y2H9 962-1065): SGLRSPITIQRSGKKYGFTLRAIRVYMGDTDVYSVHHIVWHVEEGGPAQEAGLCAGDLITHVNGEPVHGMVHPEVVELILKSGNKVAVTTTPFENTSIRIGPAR

Binder	pKd (GRIP1_4, Q9Y3R0)	pKd (LNX1_1, Q8TBB1)	pKd (APBA2_2, Q99767)	pKd (PDZRN4_1, Q6ZMN7)	pKd (FRMPD1, Q5SYB0)	pKd (MAGI2_6, Q86UL8)	pKd (LIN7A, O14910)	pKd (MAGI2_4, Q86UL8)	pKd (DLG4_2, P78352)	pKd (TIAM2, Q8IVF5)	pKd (PDZD7_3, Q9H5P4)	pKd (GRID2IP_2, A4D2P6)	pKd (PTPN13_1, Q12923)	pKd (GRID2IP_1, A4D2P6)	pKd (FRMPD4, Q14CM0)	pKd (Inadl_5, Q8NI35)	pKd (PCLO, Q9Y6V0)	pKd (DLG2_3, Q15700)	pKd (LIN7B, Q9HAP6)	pKd (MAST1, Q9Y2H9)	also measured
DTKNYKQTSV [CRIPT, Q9P021]	below the threshold	3.78	below the threshold	4.12	below the threshold	3.75	3.56	3.87	4.9	below the threshold	3.94	4.39	below the threshold	below the threshold	below the threshold	below the threshold	below the threshold	5.29	below the threshold	4.82	pKd (SCRIB_1, Q14160): 4.88; pKd (IL16_1, Q14005): below the threshold; pKd (TJP1_2, Q07157): below the threshold; pKd (MAGI2_3, Q86UL8): 3.94; pKd (GRIP1_7, Q9Y3R0): below the threshold; pKd (FRMPD3, Q5JV73): below the threshold; pKd (LNX1_3, Q8TBB1): below the threshold
KRPEMTSSSV [MUC3A, MUC3B, Q02505;Q9H195]	–	1.88	below the threshold	below the threshold	–	3.66	below the threshold	1.79	4.15	1.96	–	3.73	–	below the threshold	below the threshold	below the threshold	below the threshold	3.88	3.68	4.17	pKd (GRIP1_7, Q9Y3R0): below the threshold; pKd (FRMPD3, Q5JV73): below the threshold; pKd (LNX1_3, Q8TBB1): below the threshold
SRSVVESDEL [MYPN, Q86TC9]	below the threshold	below the threshold	below the threshold	below the threshold	below the threshold	below the threshold	below the threshold	below the threshold	below the threshold	below the threshold	3.75	below the threshold	below the threshold	below the threshold	3.72	below the threshold	below the threshold	below the threshold	below the threshold	below the threshold	pKd (SCRIB_1, Q14160): 3.49; pKd (IL16_1, Q14005): below the threshold; pKd (TJP1_2, Q07157): 3.51; pKd (MAGI2_3, Q86UL8): below the threshold; pKd (GRIP1_7, Q9Y3R0): below the threshold; pKd (FRMPD3, Q5JV73): below the threshold; pKd (LNX1_3, Q8TBB1): below the threshold

Second part, led by results:

pKd (GRIP1_4, Q9Y3R0)	pKd (LNX1_1, Q8TBB1)	pKd (APBA2_2, Q99767)	pKd (PDZRN4_1, Q6ZMN7)	pKd (FRMPD1, Q5SYB0)	pKd (MAGI2_6, Q86UL8)	pKd (LIN7A, O14910)	pKd (MAGI2_4, Q86UL8)	pKd (DLG4_2, P78352)	pKd (TIAM2, Q8IVF5)	pKd (PDZD7_3, Q9H5P4)	pKd (GRID2IP_2, A4D2P6)	pKd (PTPN13_1, Q12923)	pKd (GRID2IP_1, A4D2P6)	pKd (FRMPD4, Q14CM0)	pKd (Inadl_5, Q8NI35)	pKd (PCLO, Q9Y6V0)	pKd (DLG2_3, Q15700)	pKd (LIN7B, Q9HAP6)	pKd (MAST1, Q9Y2H9)	Binder	also measured
below the threshold	below the threshold	below the threshold	below the threshold	below the threshold	below the threshold	3.72	3.47	below the threshold	3.81	below the threshold	below the threshold	below the threshold	below the threshold	below the threshold	below the threshold	below the threshold	3.57	3.75	below the threshold	IDESKKEWLI [CNTNAP2, Q9UHC6]	pKd (SCRIB_1, Q14160): below the threshold; pKd (IL16_1, Q14005): below the threshold; pKd (TJP1_2, Q07157): 3.5; pKd (MAGI2_3, Q86UL8): 3.5; pKd (GRIP1_7, Q9Y3R0): below the threshold; pKd (FRMPD3, Q5JV73): below the threshold; pKd (LNX1_3, Q8TBB1): below the threshold
below the threshold	–	below the threshold	below the threshold	below the threshold	4.05	–	–	–	below the threshold	4.12	–	below the threshold	below the threshold	4.17	below the threshold	below the threshold	below the threshold	below the threshold	4.37	KSRVAFFEEL [NF2, P35240;P35240-1]	–
below the threshold	below the threshold	below the threshold	below the threshold	below the threshold	below the threshold	below the threshold	below the threshold	below the threshold	below the threshold	4.67	4.75	below the threshold	below the threshold	3.53	below the threshold	below the threshold	below the threshold	below the threshold	4.2	PSVGSKKTVL [REELD1, A0A1B0GV85]	pKd (SCRIB_1, Q14160): below the threshold; pKd (IL16_1, Q14005): below the threshold; pKd (TJP1_2, Q07157): below the threshold; pKd (MAGI2_3, Q86UL8): below the threshold; pKd (GRIP1_7, Q9Y3R0): below the threshold; pKd (FRMPD3, Q5JV73): below the threshold; pKd (LNX1_3, Q8TBB1): below the threshold
